# Laboratory results taken from ChEMBL document CHEMBL3525919, “Potent inhibition of human sulfotransferase 1A1 by 17α-ethinylestradiol: role of 3'-phosphoadenosine 5'-phosphosulfate binding and structural rearrangements in regulating inhibition and activity” (Drug Metab Dispos, 2012).
# Legend:
# [1] = substrate: C[C@]12CC[C@@H]3c4ccc(O)cc4CC[C@H]3[C@@H]1CC[C@@H]2O; test: Activity of SULT1E1 (unknown origin); type: ADME, Homo sapiens
# [2] = substrate: C#C[C@]1(O)CC[C@H]2[C@@H]3CCc4cc(O)ccc4[C@H]3CC[C@@]21C; test: Activity of human SULT1A1 expressed in Escherichia coli at 6 uM by Michaelis-Menten equation analysis in presence of PAPS; type: ADME
# [3] = substrate: C[C@]12CC[C@@H]3c4ccc(O)cc4CC[C@H]3[C@@H]1CC[C@@H]2O; test: Activity of human SULT1A1 expressed in Escherichia coli at 20 uM by Michaelis-Menten equation analysis in presence of PAPS; type: ADME
Protein,Km [1],Km [2],Km [3]
Sulfotransferase 1E1 (Homo sapiens) (protein) MNSELDYYEKFEEVHGILMYKDFVKYWDNVEAFQARPDDLVIATYPKSGTTWVSEIVYMIYKEGDVEKCKEDVIFNRIPFLECRKENLMNGVKQLDEMNSPRIVKTHLPPELLPASFWEKDCKIIYLCRNAKDVAVSFYYFFLMVAGHPNPGSFPEFVEKFMQGQVPYGSWYKHVKSWWEKGKSPRVLFLFYEDLKEDIRKEVIKLIHFLERKPSEELVDRIIHHTSFQEMKNNPSTNYTTLPDEIMNQKLSPFMRKGITGDWKNHFTVALNEKFDKHYEQQMKESTLKFRTEI,0.004 µM,–,–
Sulfotransferase 1A1 (Homo sapiens) (protein) MELIQDTSRPPLEYVKGVPLIKYFAEALGPLQSFQARPDDLLISTYPKSGTTWVSQILDMIYQGGDLEKCHRAPIFMRVPFLEFKAPGIPSGMETLKDTPAPRLLKTHLPLALLPQTLLDQKVKVVYVARNAKDVAVSYYHFYHMAKVHPEPGTWDSFLEKFMVGEVSYGSWYQHVQEWWELSRTHPVLYLFYEDMKENPKREIQKILEFVGRSLPEETVDFVVQHTSFKEMKKNPMTNYTTVPQEFMDHSISPFMRKGMAGDWKTTFTVAQNERFDADYAEKMAGCSLSFRSEL,–,0.45 µM,0.36 µM
